The target of the test is RbPLX7. In words: SPR. On the technique in general: SPR reads the build-up and loss of mass on a sensor chip optically.

B1: biotinylated human Plexin-B1 (20–535)-Avi-6xHis (domain or fragment)
chain: LQPLPPTAFTPNGTYLQHLARDPTSGTLYLGATNFLFQLSPGLQLEATVSTGPVLDSRDCLPPVMPDECPQAQPTNNPNQLLLVSPGALVVCGSVHQGVCEQRRLGQLEQLLLRPERPGDTQYVAANDPAVSTVGLVAQGLAGEPLLFVGRGYTSRGVGGGIPPITTRALWPPDPQAAFSYEETAKLAVGRLSEYSHHFVSAFARGASAYFLFLRRDLQAQSRAFRAYVSRVCLRDQHYYSYVELPLACEGGRYGLIQAAAVATSREVAHGEVLFAAFSSAAPPTVGRPPSAAAGASGASALCAFPLDEVDRLANRTRDACYTREGRAEDGTEVAYIEYDVNSDCAQLPVDTLDAYPCGSDHTPSPMASRVPLEATPILEWPGIQLTAVAVTMEDGHTIAFLGDSQGQLHRVYLGPGSDGHPYSTQSIQQGSAVSRDLTFDGTFEHLYVMTQSTLLKVPVASCAQHLDCASCLAHRDPYCGWCVLLGRCSRRSECSRGQGPEQWLWSFQPELGCLQ
modifications: biotin on the Avi-tag (in vitro, BirA enzyme)
In general, Kd refers to the constant that tells how readily two partners part at equilibrium. Read a low Kd as a tighter complex. For B1, binding was put at a Kd of 0.346 nM.

Values taken from PMC9396414 (2022).
